Assay results reported in patent US10080774B2, “Oncolytic adenovirus armed with therapeutic genes” (priority 2002, dated 2018).
Where no end group is shown, it is not given here. FAM = 5(6)-carboxyfluorescein label; Ahx = NCCCCCC(=O)O

What was measured:
P-MAPK = P-MAPK inhibition; format: cell-based, human; conditions: U-87 MG cells
Source text: Although the correlation between MAPK activity and Ad-E1A-COX ability to replicate has been shown (Ahmed et al., 2003), the inventors have designed studies to assess the ability of retargeted constructs to replicate in glioma cells with high or low MAPK activity. To characterize the effects of the insertion of the 3′ UTR on E1A expression, inhibitors of kinases signaling, PD98059 (p42/p44 MAPK inhibitor), and for specificity testing: SB203580 (p38 MAPK inhibitor) and LY294002 (PI3K inhibitor) will be used. The inventors will use an isogenic U-87 MG system, containing a stably integrated, IPTG-inducible activated Ha-rasVal12 cDNA (Sheng et al., 2000). This model system is based in cells that only differ in the expression of an activated variant of the Hras oncogene, Ha-rasVal12 (Sheng et al., 2000). The will assess whether PTGS2 3′ UTR-mediated Ad-E1A-COX-Tie2 depends on the P-MAPK pathway. […] The replication capability of Ad-E1A-COX-Tie2 in U87-MG cells untreated and treated with PD98059 (and the control inhibitors) will be assessed. The inventors contemplate that inhibition of P-MAPK activity by PD98059 will greatly reduce the ability Ad-E1A-COX-Tie2 to replicate even with high expression of Ha-rasVal12 induced by IPTG in the isogenic U-87 MG. […]

Tie2 [1] = target: T1, Tie2 (Homo sapiens, UniProt Q02763); test: Binding of T4 peptide to Tie2; design: expressed in transfected cells; host or cells: U-251 MG stably transfected with Tie-2 cDNA (parental U-251 MG is Tie2-negative); also A172 cells with endogenous Tie2; conditions: U-251 MG isogenic system and A172
T1 sequence (Q02763 23-1124): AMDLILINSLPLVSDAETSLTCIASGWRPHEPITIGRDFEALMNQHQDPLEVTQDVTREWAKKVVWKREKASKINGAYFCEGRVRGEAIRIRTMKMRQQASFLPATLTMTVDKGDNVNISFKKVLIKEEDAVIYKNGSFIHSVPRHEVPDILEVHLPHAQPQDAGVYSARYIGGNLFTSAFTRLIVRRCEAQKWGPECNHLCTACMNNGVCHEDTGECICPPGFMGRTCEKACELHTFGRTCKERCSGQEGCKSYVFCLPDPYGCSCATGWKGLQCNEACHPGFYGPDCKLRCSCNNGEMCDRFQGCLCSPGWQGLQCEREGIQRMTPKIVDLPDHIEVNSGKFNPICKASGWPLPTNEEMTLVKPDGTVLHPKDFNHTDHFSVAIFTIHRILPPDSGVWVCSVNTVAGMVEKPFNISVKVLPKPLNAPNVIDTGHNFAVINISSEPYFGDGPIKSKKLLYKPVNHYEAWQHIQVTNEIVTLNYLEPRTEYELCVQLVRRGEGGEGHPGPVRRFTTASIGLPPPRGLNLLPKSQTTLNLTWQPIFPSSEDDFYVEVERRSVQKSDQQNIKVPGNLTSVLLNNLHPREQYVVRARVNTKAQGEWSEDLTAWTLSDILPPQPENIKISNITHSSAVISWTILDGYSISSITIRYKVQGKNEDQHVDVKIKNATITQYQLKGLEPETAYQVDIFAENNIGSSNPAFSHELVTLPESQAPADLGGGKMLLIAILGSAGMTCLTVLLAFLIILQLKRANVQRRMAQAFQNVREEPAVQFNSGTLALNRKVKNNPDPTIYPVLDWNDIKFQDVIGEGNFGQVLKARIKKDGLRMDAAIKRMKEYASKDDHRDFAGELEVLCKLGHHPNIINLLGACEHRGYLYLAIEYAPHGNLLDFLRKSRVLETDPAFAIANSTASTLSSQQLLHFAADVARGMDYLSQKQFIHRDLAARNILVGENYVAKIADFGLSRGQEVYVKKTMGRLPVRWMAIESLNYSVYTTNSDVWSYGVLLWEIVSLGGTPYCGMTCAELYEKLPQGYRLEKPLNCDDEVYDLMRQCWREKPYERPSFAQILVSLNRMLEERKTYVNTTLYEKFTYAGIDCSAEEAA
Source text: Testing the binding of the proposed Tie2-ligand, T4, the inventors synthesized the peptide linked to FAM signal that was suitable for flow cytometric detection. Peptide was synthesized by automatic solid phase chemistry using Fmoc strategy. The N-terminal aminohexanoic acid was labeled by coupling 5(6)-carboxyfluorescein. Peptides were purified to >98% purity by reverse phase HPLC.

Tie2 [2] = target: T1, Tie2; design: expressed in transfected cells; host or cells: U-251 MG stably transfected with Tie-2 cDNA (parental U-251 MG is Tie2-negative); also A172 cells with endogenous Tie2; conditions: Tournaire et al. (2004); cited from earlier work
[3] = system: ERK1 (p44MAPK) and ERK2 (p42MAPK); test: ERK1/2 (p42/p44 MAPK) phosphorylation, Western blot; format: cell-based, human
Description: HUVEC and U-87 MG cells were mock-, AdCMV- or AdAng-2-Infected. 24 hours later they were overnights serum-starved, and then stimulated with […] for 10 min. Cell lysates were collected and analyzed by Western blotting for expression of phospho- and total p42/p44 MAPK. Ang-1 increased ERK 1/2 phosphorylation what was inhibited by the viral-transduced Ang-2.
The Ang-2/Ang-1/Tie2 system has been studied in endothelial cells, and different pathways have been reported as involved in the cascade signaling; these include phosphotidylinositol […] (PI3-K), focal adhesion kinase, Raf/Ras/mitogen-activated protein kinase (MAPK), and Dok-R/Dok-2/Nck/Pak (Yoon et al., 2003). […] These cascades modulate protein synthesis and/or transcriptional activation. […] To measure MAPK activity, the inventors measured the degree of phosphorylation of two MAPKs, ERK1 (p44MAPK) and ERK2 (p42MAPK).
The Ang-2/Ang1/Tie2 system has been studied in endothelial cells, and different pathways have been reported as involved in the cascade signaling. […] MAPK activity was measured by the degree of phosphorylation of two MAPKs, ERK1 (p44^MAPK) and ERK2 (p42^MAPK).

Tie2 [4] = target: T1, Tie2; test: Tie2 phosphorylation, immunoprecipitation; format: cell-based; conditions: U-87 MG, 500 ng/ml, 10 min
Description: To explore the regulation of Tie2 signaling by Angs in U-87 MG cells, Tie2 was immunoprecipitated from membrane fractions of U-87 MG cells treated with rAng1 (500 ng/ml) for 10 min, and phosphorylation of Tie2 was addressed using anti-phosphotyrosine antibody.

Ras = Ras activity (Ras-GTP); format: cell-based, human; conditions: U-87 MG
Description: In addition, the inventors have obtained data regarding the upstream effector of p42/p44 MAPK, Ras, by analyzing Ras activity in Ang1-estimulated U-87 MG cells. Ras activity, which detects active GTP-bound Ras, was performed by immunoprecipitation of Ras-Raf complexes (contains only active Ras), and consequent western blotting detection of Ras-GTP molecule.

Akt = Akt phosphorylation; format: cell-based, human; conditions: U-87 MG, 100-500 ng/ml
Source text: Consistant with previous reports, Ang-1/Tie signaling in endothelial cells in vitro involves PI3K/Akt activation (DeBusk et al., 2004; Papapetropoulos et al., 2000).

U-87 MG cells [5] = test: Glioma cell adhesion assay; format: cell-based, human; conditions: 1 hr
Source text: It was reported that Ang1 promotes adhesion of Tie2+ hematopoietic stem cells to fibronectin and collagen and also promotes the interaction of endothelial cells with surrounding mesenchymal cells and the extracellular matrix (Davis et al., 1996; Suri et al., 1996; Arai et al., 2004). Therefore, the inventors analyzed the effects of Ang1/Tie2 signalling on glioma adhesion. Briefly, 96-well dishes were coated for 2 hr at room temperature (RT) with rAng1 diluted in PBS. Wells were then blocked for 30 min at RT with 0.5% heat-inactivated BSA in PBS (80° C. for 10 min) and washed three times with PBS before adding cells. U-87 MG cells were harvested and resuspended. 30,000 cells were seeded/well, and the plate was incubated at 37° C. for 1 hr. Nonadherent cells were removed and attached cells were fixed in 4% paraformaldehyde and stained with 0.2% crystal violet. Cells were solubilized in DMSO and absorbance of each well was read at 570 nm. […] Similar results were obtained when Tie2− and Tie2+U-251 MG were used. In addition, the possibility of Ang1-induced adhesion has been assessed. For that study, the wells were coated with several ECM and then, U-87 MG cells that were previously stimulated with Ang1 (BSA control), were plated on those wells. […]

U-87 MG cells [6] = test: Chemotactic migration assay (Transwell); format: cell-based, human; conditions: 24 h
Description: Witzenbichler et al. (1998) have reported the chemotactic properties of Ang1 for Tie2-endothelial cells. A chemotaxis assay was performed in the presence or absence of Ang1. Incubation with various concentrations of Ang1 enhanced chemotactic migration of U-87 MG cells. Migration assay was performed as described previously (Gomez-Manzano, 2003). Briefly, the lower surface of the filter was coated with gelatin. 600 μl of DMEM/F-12 (1:1) containing rAng1 and 0.1% BSA was added into lower compartment of the Transwell chamber, and 100 μl of cell suspension was added in the upper chamber. After 24 h of incubation, the filters were fixed, stained with H/E, and the cells on the lower surface of the filters were counted at 400× with Zeiss microscope. Assays were performed in triplicate. […] To distinguish between chemotactic and chemokinetics effect of Ang1 on U-87 MG, an analysis was performed where similar doses of Ang1 were present above and below the filter. Significant migration was observed only when a concentration gradient of Ang1 was established, a finding typical of factors inducing chemotaxis.

Dok-R = test: Tie2 association with Dok-R; format: cell-based, human; conditions: stable transfected Tie2 U-251 MG
Source text: Tie2 can also recruit additional signaling molecules that participate in cellular pathways that affect the shape and migratory properties of cells. In this regard, the Tie2-associated docking protein Dok-R can potentiate NCK-dependent endothelial cell migration in response to Ang1 (Master et al., 2001; Jones et al., 2003).

In the case of COc1cccc(-c2cc(=O)c3ccccc3o2)c1N [PD98059], the P-MAPK expression (P-MAPK) is reported as “effectively inhibited P-MAPK expression”.

In the case of “NLLMAAS ({FAM-Ahx}-NLLMAAS; also: 5(6)-carboxyfluorescein label (site not given here)) [T4]”, the “binding to cell membrane by flow cytometry” value (Tie2 [1]) is given as “binds preferentially to the membrane of cells overexpressing Tie2” and the “binding of Ang1 and Ang-2 to the Tie2 receptor” value (Tie2 [2]) is given as “completely abolished”.

B1: rhAng-1: recombinant angiopoietin-1 protein (protein)
chain: SNQRRSPENSGRRYNRIQHGQCAYTFILPEHDGNCRESTTDQYNTNALQRDAPHVEPDFSSQKLQHLEHVMENYTQWLQKLENYIVENMKSEMAQIQQNAVQNHTATMLEIGTSLLSQTAEQTRKLTDVETQVLNQTSRLEIQLLENSLSTYKLEKQLLQQTNEILKIHEKNSLLEHKILEMEGKHKEELDTLKEEKENLQGLVTRQTYIIQELEKQLNRATTNNSVLQKQQLELMDTVHNLVNLCTKEGVLLKGGKREEEKPFRDCADVYQAGFNKSGIYTIYINNMPEPKKVFCNMDVNGGGWTVIQHREDGSLDFQRGWKEYKMGFGNPSGEYWLGNEFIFAITSQRQYMLRIELMDWEGNRAYSQYDRFHIGNEKQNYRLYLKGHTGTAGKQSSLILHGADFSTKDADNDNCMCKCALMLTGGWWFDACGPSNLNGMFYTAGQNHGKLNGIKWHYFKGPSYSLRSTTMMIRPLDF
In the case of B1, the ERK1/2 phosphorylation ([3]; HU-VEC-C endothelial cells, 100 ng/ml) is reported as “increased ERK1/2 phosphorylation”, the ERK1/2 phosphorylation ([3]; U-87 MG) is reported as “increased ERK1/2 phosphorylation” and the Tie2 phosphorylation (Tie2 [4]) is reported as “induced phosphorylation of Tie2”. The Ras activity (Ras) was “Ras activity increases”, the Akt phosphorylation (Akt) was “did not modify the pattern of phosphorylation of the Akt molecule” and the “adhesion of U-87 cells to Ang1-coated wells” value (U-87 MG cells [5]) was “increasing adhesion properties”. The chemotactic migration (U-87 MG cells [6]) was “significant increase in directed migration” and the “Tie2 association with Dok-R” value (Dok-R) was “results in Tie2 association with Dok-R protein”.
